Results published in patent CN114920842A (HUALAN GENE ENG CO LTD, dated 2022).
Numbering of substitutions follows the chain as printed.

T1: 重组人PLVAP/PV-1蛋白 (human, UniProt Q9BX97 49-442, limits assumed)
T1 construct: Bought reagent (Abcam); Coupled to a CM5 chip in the SPR assay; also called 质膜膜泡关联蛋白
T1 sequence (looked up): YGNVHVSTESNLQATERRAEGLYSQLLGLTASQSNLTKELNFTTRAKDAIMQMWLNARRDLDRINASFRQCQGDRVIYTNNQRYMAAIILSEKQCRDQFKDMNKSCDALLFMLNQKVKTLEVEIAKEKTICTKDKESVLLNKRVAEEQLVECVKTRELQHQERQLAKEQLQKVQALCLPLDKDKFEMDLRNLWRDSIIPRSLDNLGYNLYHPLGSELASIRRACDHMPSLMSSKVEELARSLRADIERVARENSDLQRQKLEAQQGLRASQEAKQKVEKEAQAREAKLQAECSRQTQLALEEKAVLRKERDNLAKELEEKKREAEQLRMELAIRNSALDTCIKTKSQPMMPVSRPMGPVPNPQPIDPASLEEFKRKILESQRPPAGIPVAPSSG

B1: HLPV-P01 (antibody, IgG1, V domains shown)
VH: QVQLVQSGAEVKKPGASVKVSCKASGYTFTDYYMYWVRQAPGQGLEWIGEINPTQGDVNFNEMFKSRVTMTVDTSTSTAYMELSSLRSEDTAVYYCTSIFYWGQGTLVTVSS
VL: DIVMTQSPSSLSASVGDRVTITCKASQDIKYQLSWYQQKPGKAPKTLIYYATDLADGVPSRFSGSGSGQEFTLTISSLQPEDFATYYCVQHDDRPFTFGQGTKLEIK
notes: Full IgG1/kappa antibody; also called 中间抗体; not shown: human IgG1 heavy chain constant region, UniProtKB P01857.1; human Kappa light chain constant region, UniProtKB P01834.2
B2: HLPV-P05 (antibody, IgG1, V domains shown)
VH: B1 VH
VL: B1 VL with S34T, D93N
notes: Full IgG1/kappa antibody; not shown: human IgG1 heavy chain constant region, UniProtKB P01857.1; human Kappa light chain constant region, UniProtKB P01834.2
B3: HLPV-P14 (antibody, IgG1, V domains shown)
VH: B1 VH with D31N, Q55S
VL: B1 VL with T52G
notes: as for B2
B4: HLPV-P12 (antibody, IgG1, V domains shown)
VH: B1 VH with T54S
VL: B1 VL with L54R
notes: as for B2
B5: HLPV-P00 (antibody, IgG1, V domains shown)
VH: B1 VH with F100H
VL: B1 VL with Y31T, V89L
notes: Full IgG1/kappa antibody, VH fused at its C-terminus to the IgG1 constant region, VL to the kappa constant region; expressed in ExpiCHO-S; also called 原始抗体; not shown: human IgG1 heavy chain constant region, UniProtKB P01857.1; human Kappa light chain constant region, UniProtKB P01834.2
B6: HLPV-P07 (antibody, IgG1, V domains shown)
VH: B1 VH with T30E, N59R
VL: B1 VL with D53Y
notes: as for B2
B7: HLPV-P04 (antibody, IgG1, V domains shown)
VH: B1 VH with T30R, Q55T
VL: B1 VL with D53S
notes: as for B2
B8: HLPV-P11 (antibody, IgG1, V domains shown)
VH: B1 VH with S98T
VL: B1 VL with T97S
notes: as for B2
B9: HLPV-P10 (antibody, IgG1, V domains shown)
VH: B1 VH
VL: B1 VL with S34T, D92S
notes: as for B2
B10: HLPV-P02 (antibody, IgG1, V domains shown)
VH: B1 VH with T28V, Q55T
VL: B1 VL with A51S
notes: as for B2
B11: HLPV-P09 (antibody, IgG1, V domains shown)
VH: B1 VH with S98T
VL: B1 VL with K30G, D92Y
notes: as for B2
B12: HLPV-P08 (antibody, IgG1, V domains shown)
VH: B1 VH with S98T
VL: B1 VL with S34T, Q90S
notes: as for B2
B13: HLPV-P06 (antibody, IgG1, V domains shown)
VH: B1 VH with D31A, Q55S
VL: B1 VL with D53F
notes: as for B2
B14: HLPV-P13 (antibody, IgG1, V domains shown)
VH: B1 VH with T28V, Q55S
VL: B1 VL with T52G
notes: as for B2
B15: HLPV-P03 (antibody, IgG1, V domains shown)
VH: B1 VH with T30E, I51V
VL: B1 VL with D53F
notes: as for B2

Target: T1, 重组人PLVAP/PV-1蛋白
Assay: SPR, Biacore T200, PV-1 coupled to CM5 chip, antibody as analyte, 25℃, 1:1 fit

| Binder | 倍数 (fold against HLPV-P00) [fold] |
| --- | --- |
| B1 | 7.31 |
| B2 | 25.8 |
| B3 | 8.58 |
| B4 | 4.1 |
| B5 | 1 |
| B6 | 11.4 |
| B7 | 14 |
| B8 | 40.5 |
| B9 | 23.4 |
| B10 | 6.29 |
| B11 | 36.8 |
| B12 | 38.4 |
| B13 | 8.95 |
| B14 | 9.29 |
| B15 | 13.4 |
